Results taken from publication PMC4738300, “Physiological lipid composition is vital for homotypic ER membrane fusion mediated by the dynamin-related GTPase Sey1p” (Scientific Reports, 2016).

Columns and labels:
[1] = target: the molecule itself; test: pull-down; GST-Sey1p and His6-Sey1p, 4 uM each, mixed in RB150 (20 mM Hepes-NaOH pH 7.4, 150 mM NaCl, 10% glycerol) with 0.4% Triton X-100, 2 mM MgCl2 and 1 mM GTP, 4 °C; GST-Sey1p isolated on glutathione-Sepharose 4B; SDS-PAGE, Coomassie Blue
[2] = target: the molecule itself; test: proteoliposome docking assay (co-isolation of liposomes on streptavidin beads); biotin-labeled Sey1p proteoliposomes held on streptavidin magnetic beads and Rh-labeled Sey1p proteoliposomes (500 uM lipid each) in RB500 with 2 mM MgCl2 and 1 mM GTP, 30 °C, 30 min; Rh fluorescence of co-isolated liposomes; complete ER-mimicking lipids and four lipid subsets (Table 1)

B1: Sey1p (tagged full-length recombinant Sey1p: GST-His6-3C-Sey1p and His6-3C-Sey1p) (natural protein, S. cerevisiae, UniProt Q99287 1-776, looked up)
chain: MADRPAIQLIDEEKEFHQSALQYFQQCIGNRDVGLDYHVISVFGSQSSGKSTLLNVLFNTNFDTMDAQVKRQQTTKGIWLAHTKQVNTTIEIDNDRPDIFVLDVEGSDGSERGEDQDFERKAALFAIAVSEVLIVNMWEQQIGLYQGNNMALLKTVFEVNLSLFGKNDNDHKVLLLFVIRDHVGVTPLSSLSDSVTRELEKIWTELSKPAGCEGSSLYDYFDLKFVGLAHKLLQEDKFTQDVKKLGDSFVMKGTENYYFKPQYHHRLPLDGWTMYAENCWDQIERNKDLDLPTQQILVARFKTEEISNEALEEFISKYDESIAPLKGNLGSLTSQLVKLKEECLTKYDEQASRYARNVYMEKREALNTKLNSHISGTINEFLESLMEKLWDDLKLEVSSRDKATTSFVESVAAGKSKIEKEFNESMETFKKLGLLISNEEITCKFSDDIEERIKQLRDAELKAKIGRIKKNLVPELKDHVIHLLSHPSKKVWDDIMNDFESTIKDNISAYQVEKDKYDFKIGLSESENAKIYKNIRILAWRTLDTTVHDYLKIDTIVSILRDRFEDVFRYDAEGSPRLWKTEEEIDGAFRVAKEHALEVFEVLSLAVTSDNVEIIPDVPMAEEESGEDNEIYRDNEGVFHSRRFAHILTELQKENVLDQFRRQINITVLDSKRSIITTRTHIPPWIYVLLAVLGWNEFVAVIRNPLFVTLTLILGATFFVIHKFGLWGPVVNVVQSAVGETRTAIKDKLRQFVVEDHEVKESFEMKDFSKNEQKEK
notes: The bait copy is GST-His6-3C-Sey1p (pET-41 Ek/LIC) and the prey copy is His6-3C-Sey1p (pET-30 Ek/LIC); GST is on the bait copy only; The tags were not cleaved in the pull-down; also called GST-Sey1p; His6-Sey1p; source: E. coli Rosetta 2(DE3)pLysS, purified (COSMOGEL His-Accept beads, imidazole elution, dialysis; in 0.4% Triton X-100); not shown: His6, N-terminal, kept; GST, N-terminal, kept
binding result [1]: binds

B2: untagged full-length Sey1p reconstituted into proteoliposomes (natural protein, S. cerevisiae)
chain: GPGMADRPAIQLIDEEKEFHQSALQYFQQCIGNRDVGLDYHVISVFGSQSSGKSTLLNVLFNTNFDTMDAQVKRQQTTKGIWLAHTKQVNTTIEIDNDRPDIFVLDVEGSDGSERGEDQDFERKAALFAIAVSEVLIVNMWEQQIGLYQGNNMALLKTVFEVNLSLFGKNDNDHKVLLLFVIRDHVGVTPLSSLSDSVTRELEKIWTELSKPAGCEGSSLYDYFDLKFVGLAHKLLQEDKFTQDVKKLGDSFVMKGTENYYFKPQYHHRLPLDGWTMYAENCWDQIERNKDLDLPTQQILVARFKTEEISNEALEEFISKYDESIAPLKGNLGSLTSQLVKLKEECLTKYDEQASRYARNVYMEKREALNTKLNSHISGTINEFLESLMEKLWDDLKLEVSSRDKATTSFVESVAAGKSKIEKEFNESMETFKKLGLLISNEEITCKFSDDIEERIKQLRDAELKAKIGRIKKNLVPELKDHVIHLLSHPSKKVWDDIMNDFESTIKDNISAYQVEKDKYDFKIGLSESENAKIYKNIRILAWRTLDTTVHDYLKIDTIVSILRDRFEDVFRYDAEGSPRLWKTEEEIDGAFRVAKEHALEVFEVLSLAVTSDNVEIIPDVPMAEEESGEDNEIYRDNEGVFHSRRFAHILTELQKENVLDQFRRQINITVLDSKRSIITTRTHIPPWIYVLLAVLGWNEFVAVIRNPLFVTLTLILGATFFVIHKFGLWGPVVNVVQSAVGETRTAIKDKLRQFVVEDHEVKESFEMKDFSKNEQKEK
notes: three extra N-terminal residues (Gly-Pro-Gly) left after 3C protease cleavage, printed in three-letter code; Inserted by its two C-terminal transmembrane domains into liposomes; Protein-to-lipid ratio 1/500 (mol/mol); also called untagged form of Sey1p; Sey1p proteoliposomes; not shown: His6, N-terminal, cleaved
binding result [2]: binds
